Measurements reported in patent publication US20150274802A1 (INDIANA UNIVERSITY RESEARCH AND TECHNOLOGY, published 2015).
Several values for one entry are separate records, joined by “and”; a condition that tells them apart may be missing. Equal values may be shown once. Read-outs that look alike come from different tables or passages of the source. Bridge positions count the residues as written; N and C are the ends. Square brackets hold non-standard residues; d marks the D form. Ends that are not written are not given here. I, II: the chains in the order shown. Phe(4-NH2) = Nc1ccc(C[C@H](N)C(=O)O)cc1

B1: IGF-1 A:In B(1-5)-IGF-1 B(YL) (6-30) (ligand)
chain 1: GIVDECCFRSCDLRRLEMYCA
chain 2: FVNQHLCGAELVDALYLVCGDRGFYFNKPT
modifications: ends and bridges not checked; also: C-terminal amide, chain not given here
notes: chimeric B chain
B2: IGF-1 A:B(E10Y16L17) (ligand)
chain 1: GIVDECCFRSCDLRRLEMYCA-NH2
chain 2: GPETLCGAELVDALYLVCGDRGFYFNKPT-NH2
modifications: cysteine pairing not given here
B3: IGF-1 A:IGF-1 B(1-8)-In (9-17)-IGF-1 B(18-30) (ligand)
chain 1: GIVDECCFRSCDLRRLEMYCA-NH2
chain 2: GPETLCGSHLVEALYLVCGDRGFYFNKPT-NH2
modifications: disulfide I:6-I:11, I:20-II:18, I:7-II:6 (inferred); not fully specified
notes: chimeric B chain
B4: IGF-1 A:B (H5D10Y16L17) DPI (ligand)
chain 1: GIVDECCFRSCDLRRLEMYCA-NH2
chain 2: GPEHLCGADLVDALYLVCGDRGFY-NH2
modifications: cysteine pairing not given here
B5: IGF-1 A:B (E10Y16L17) DPI (ligand)
chain 1: GIVDECCFRSCDLRRLEMYCA-NH2
chain 2: GPETLCGAELVDALYLVCGDRGFY-NH2
modifications: cysteine pairing not given here
B6: IGF-1 A (H8 A9 N21):B(H5D10Y16L17) DPI A-COOH (ligand)
chain 1: GIVDECCHASCDLRRLEMYCN-OH
chain 2: GPEHLCGADLVDALYLVCGDRGFY
modifications: not fully specified (C-terminus); ends and bridges not checked
B7: IGF-1 A:B(D10Y16L17) DPI A-COOH (ligand)
chain 1: GIVDECCFRSCDLRRLEMYCA-OH
chain 2: GPETLCGADLVDALYLVCGDRGFY-NH2
modifications: ends and bridges not checked
B8: IGF-1 A (H8 A9 N21):B(H5D10Y16L17A22) (S═O) DPI A-COOH (ligand)
chain 1: GIVDECCHASCDLRRLEMYCN-OH
chain 2: GPEHLCGADLVDALYLVCGDAGFY
modifications: not fully specified (C-terminus); ends and bridges not checked; also: (S═O) oxidation, residue not given here
B9: IGF-1 A (H8 A9 N21):B(H5D10Y16L17 A22) DPI A-COOH (ligand)
chain 1: GIVDECCHASCDLRRLEMYCN-OH
chain 2: GPEHLCGADLVDALYLVCGDAGFY
modifications: not fully specified (C-terminus); ends and bridges not checked
B10: IGF-1 A:B(E10Y16L17)-E31E32 B-COOH (ligand)
chain 1: GIVDECCFRSCDLRRLEMYCA
chain 2: GPETLCGAELVDALYLVCGDRGFYFNKPTEE-OH
modifications: not fully specified (C-terminus); ends and bridges not checked
B11: MIU-57: B1-PEG20K MIU-35 (ligand)
chain: {PEG 20 kDa}-GPEHLCGAHLVDALYLVCGDRGFYGYGSSSRRAPQTGIVDECCHRSCDLRRLENYCN
modifications: ends and bridges not checked
B12: IGF-2 AB(YL) (ligand)
chain 1: not shown
chain 2: AYRPSETLCGGELVDTLYLVCGDRGFYFSRPA
modifications: C-terminal amide
B13: B^1(H5,10Y16L17)25-C^1-A^1(T8N18,21) (ligand)
chain: GPEHLCGAHLVDALYLVCGDRGFYGYGSSSRRAPQTGIVDECCTRSCDLRRLENYCN
B14: IGF-1 A:B(H5D10Y16L17) (S═O) DPI (ligand)
chain 1: GIVDECCFRSCDLRRLEMYCA-NH2
chain 2: GPEHLCGADLVDALYLVCGDRGFY-NH2
modifications: ends and bridges not checked; also: (S═O) oxidation, residue not given here
B15: IGF1(Y^B16L^B17)(AlaPro)^A-1,0 (ligand)
chain 1: APGIVDECCFRSCDLRRLEMYCA
chain 2: GPETLCGAELVDALYLVCGDRGFYFNKPT
B16: IGF1 (Y^B16L^B17) (p-NH2-F)^A19 amide (ligand)
chain 1: GIVDECCFRSCDLRRLEM[Phe(4-NH2)]CA
chain 2: GPETLCGAELVDALYLVCGDRGFYFNKPT
modifications: not fully specified; ends and bridges not checked
notes: also called IGF1 (Y^B16L^B17) A(p-NH2-F)^19
B17: GE5W-B^1(H5,10Y16L17)25-C^1-A^1(A1H8N18,21) (ligand)
chain: GEEEEEWGPEHLCGAHLVDALYLVCGDRGFYGYGSSSRRAPQTAIVDECCHRSCDLRRLENYCN
B18: IGF-1 A:B (ligand, human)
chain 1: GIVDECCFRSCDLRRLEMYCA
chain 2: GPETLCGAELVDALQFVCGDRGFYFNKPT
modifications: not fully specified (C-terminus); ends and bridges not checked; also: C-terminal amide, chain not given here
notes: domain: B chain; two-chain form of IGF-1

Columns and labels:
human IGF-1 receptor [1] = biological target: T1, human IGF-1 receptor (human, UniProt P08069 31-1367); assay: competition SPA, [125I]IGF-1
T1 construct: whole, on cells; transfected HEK293 cells in the phosphorylation assay
Procedure: (§1) Non-specifically bound (NSB) radioactivity was measured in the wells with a four-fold concentration excess of “cold” native ligand than the highest concentration in test samples. Total bound radioactivity was detected in the wells with no competitor. Percent specific binding was calculated as following: % Specific Binding=(Bound-NSB/Total bound-NSB)×100. IC50 values were determined by using Origin software (OriginLab, Northampton, Mass.).

human insulin receptor [2] = biological target: T2, human insulin receptor (human, UniProt P06213 28-1382); assay: cell-based or functional assay
human insulin receptor [3] = biological target: T2, human insulin receptor; assay: competition SPA, [125I]insulin
Procedure: as §1

human IGF-1 receptor [4] = biological target: T1, human IGF-1 receptor; assay: cell-based or functional assay
human IGF-1 receptor [5] = biological target: T1, human IGF-1 receptor; assay: cell-based or functional assay; remark: listed apart in the source
human IGF-1 receptor [6] = biological target: T1, human IGF-1 receptor; assay: cell-based or functional assay; remark: listed apart in the source
human IGF-1 receptor [7] = biological target: T1, human IGF-1 receptor; assay: cell-based or functional assay; remark: listed apart in the source
human insulin receptor [8] = biological target: T2, human insulin receptor; assay: competition SPA, [125I]insulin; remark: listed apart in the source
human insulin receptor [9] = biological target: T2, human insulin receptor; assay: competition SPA, [125I]insulin; remark: listed apart in the source

Binder | % IGF-1 (in test) (human IGF-1 receptor [1]) [%] | % native IGF-1 activity (0.55 nM) (human IGF-1 receptor [1]) [%] | % insulin (in test) (human insulin receptor [3]) [%] | IC50 (human insulin receptor [3]) [nM] | also measured
B1 | 3.6 | 2 |  |  | 
B2 |  |  |  |  | % Insulin (human insulin receptor [2]): 49.2%; EC50, receptor phosphorylation (human insulin receptor [2]): 2.57 nM
B3 | 0.3 | 0.4 | 19.1 | 1.59 | % native insulin activity (0.6 nM) (human insulin receptor [3]): 37.7%
B4 | 11.2 | 11.8 | 479 | 0.16 | % IGF (human IGF-1 receptor [4]): 7.1%; EC50, receptor phosphorylation (human IGF-1 receptor [4]): 12.2 nM
B5 | 3.3 | 2.4 |  |  | 
B6 | 12.9 | 13.6 |  |  | EC50, receptor phosphorylation (human insulin receptor [2]): 0.15 nM and 0.25 nM; % IGF (human IGF-1 receptor [4]): 181%; EC50, receptor phosphorylation (human IGF-1 receptor [4]): 0.43 nM
B7 | 7.7 | 8.1 |  |  | % Insulin (human insulin receptor [2]): 1580%; % IGF (human IGF-1 receptor [4]): 112%; EC50, receptor phosphorylation (human IGF-1 receptor [4]): 0.78 nM
B8 |  |  | 401 |  | 
B9 | 2.3 | 2.4 | 1170 | 0.12 | EC50, receptor phosphorylation (human insulin receptor [2]): 0.35 nM and 0.44 nM; % IGF (human IGF-1 receptor [4]): 7.7%; EC50, receptor phosphorylation (human IGF-1 receptor [4]): 11.3 nM
B10 | 3 | 3.1 |  |  | EC50, receptor phosphorylation (human insulin receptor [2]): 7 nM and 8.52 nM
B11 |  |  |  |  | % (potency at the receptor, assay not named) (human IGF-1 receptor [5]): 1.2%; Phosphorylation (EC50), % IGF-1 R (human IGF-1 receptor [6]): 1.2%; % Insulin Activity (in vitro, assay not named) (human IGF-1 receptor [7]): 1.2%
B12 |  |  |  | 6.81 | 
B13 |  |  |  |  | % (potency at the receptor, assay not named) (human IGF-1 receptor [5]): 3.7%
B14 |  |  | 316 | 0.25 | 
B15 |  |  |  |  | IC50 (human insulin receptor [8]): 1.93 nM
B16 |  |  |  |  | IC50 (human insulin receptor [9]): 1.08 nM
B17 |  |  |  |  | % (potency at the receptor, assay not named) (human IGF-1 receptor [5]): 0.5%
B18 |  |  | 5.8 | 10.4 | % native insulin activity (0.6 nM) (human insulin receptor [3]): 5.8%
